For experiment [1], the target named is T1, phospho-Ser45-β-catenin (pS45-β-catenin) (human, UniProt P35222 1-781, phosphoserine at 45).
T1 sequence: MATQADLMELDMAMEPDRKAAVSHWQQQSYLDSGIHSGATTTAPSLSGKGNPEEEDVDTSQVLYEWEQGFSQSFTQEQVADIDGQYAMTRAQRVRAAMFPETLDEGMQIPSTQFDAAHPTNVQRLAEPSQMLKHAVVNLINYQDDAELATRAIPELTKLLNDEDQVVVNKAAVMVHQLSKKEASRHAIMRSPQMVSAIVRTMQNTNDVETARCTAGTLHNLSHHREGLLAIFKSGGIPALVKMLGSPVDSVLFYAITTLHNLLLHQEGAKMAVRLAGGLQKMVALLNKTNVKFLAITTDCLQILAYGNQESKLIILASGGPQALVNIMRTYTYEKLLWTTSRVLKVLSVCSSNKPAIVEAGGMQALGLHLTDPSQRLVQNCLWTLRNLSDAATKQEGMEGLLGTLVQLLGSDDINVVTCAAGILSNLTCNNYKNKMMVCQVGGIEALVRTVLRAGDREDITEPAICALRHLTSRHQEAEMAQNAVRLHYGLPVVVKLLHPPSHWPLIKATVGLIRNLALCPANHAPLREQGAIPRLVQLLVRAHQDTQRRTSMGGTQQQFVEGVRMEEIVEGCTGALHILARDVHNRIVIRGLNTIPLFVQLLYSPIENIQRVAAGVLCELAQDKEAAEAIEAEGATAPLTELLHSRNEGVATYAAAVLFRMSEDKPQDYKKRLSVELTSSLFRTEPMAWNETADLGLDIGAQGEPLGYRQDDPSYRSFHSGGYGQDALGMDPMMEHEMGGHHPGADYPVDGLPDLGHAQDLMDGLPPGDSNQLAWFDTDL
Kind of experiment: BLI. (In general: In BLI a coated tip is dipped into the sample, and binding shifts an interference pattern.)

In a further experiment the target is GSK3β (human, UniProt P49841 1-420, phosphorylated on the activation loop Tyr216). As to the kind of experiment: BLI.
Chain of GSK3β (P49841 whole entry): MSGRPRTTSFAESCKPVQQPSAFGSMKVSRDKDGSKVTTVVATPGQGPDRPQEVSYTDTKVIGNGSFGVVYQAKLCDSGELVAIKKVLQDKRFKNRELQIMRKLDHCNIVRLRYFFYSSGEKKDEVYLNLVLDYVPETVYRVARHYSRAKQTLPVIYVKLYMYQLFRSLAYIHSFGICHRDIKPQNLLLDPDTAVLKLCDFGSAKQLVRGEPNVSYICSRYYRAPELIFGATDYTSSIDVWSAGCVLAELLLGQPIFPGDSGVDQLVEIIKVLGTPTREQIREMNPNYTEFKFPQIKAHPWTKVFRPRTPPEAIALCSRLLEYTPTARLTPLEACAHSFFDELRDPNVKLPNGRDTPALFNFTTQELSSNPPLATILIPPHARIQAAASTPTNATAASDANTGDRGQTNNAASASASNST

B1: Axin_(384-518) (miniAxin) (domain or fragment)
chain: EPQKFAEELIHRLEAVQRTREAEEKLEERLKRVRMEEEGEDGDPSSGPPGPCHKLPPAPAWHHFPPRCVDMGCAGLRDAHEENPESILDEHVQRVLRTPGRQSPGPGHRSPDSGHVAKMPVALGGAASGHGKHVP
For orientation: Kd means the constant that tells how readily two partners part at equilibrium. A high value points to lower affinity. B1: the Kd in experiment [1] was 4000 nM; with GSK3β, 16 nM.

For the origin of these results see paper doi:10.1101/768242 (bioRxiv, 2019).
